According to patent US20210188971A1 (QUIDEL, published 2021):

Molecular target: T1, L1-10 fusion protein (human)
T1 construct: also called L1-10, unlabeled; L1-10 antigen
Experiment: indirect sandwich luminescence ELISA, L1-10 held by anti-MBP or StrepMAb on RAM
Protocol: Appropriate diluted standards were prepared along with controls and samples in a Assay Diluent in a separate non-sticky plate. 50 μl or 100 μl of each antibody or antigen (at indicated concentrations) were pipetted to the plate wells. Plates were sealed and incubated for 60 minutes at RT (unless otherwise indicated). The plates were washed with PBST 4×. 50 μl/well of Furimazine substrate was pipetted and incubated for 3 minutes at RT.
The mouse monoclonal antibody served as the anchor for L1-10.

B1: M22_NLuc_HisTag antibody protein (antibody, human IgG1, lambda)
heavy: not shown
light: LTVLTQPPSVSGAPRQRVTISCSGNSSNIGNNAVNWYQQLPGKAPKLLIYYDDQLPSGVSDRFSGSRSGTSASLAIRGLQSEDEADYYCTSWDDSLDSQLFGGGTRLTVLGQPKAAPSVTLFPPSSEELQANKATLVCLISDFYPGAVTVAWKADSSPVKAGVETTTPSKQSNNKYAASSYLSLTPEQWKSHKSYSCQVTHEGSTVEKTVAPTECS
notes: also called M22_Luc; mAb Nluc-His
binding result: binds
